14 molecules from patent publication US10941182 (Amgen, dated 2021) can be followed below.

In one assay the target is T1, human APJ receptor (human, UniProt P35414 1-380).
T1 sequence (looked up): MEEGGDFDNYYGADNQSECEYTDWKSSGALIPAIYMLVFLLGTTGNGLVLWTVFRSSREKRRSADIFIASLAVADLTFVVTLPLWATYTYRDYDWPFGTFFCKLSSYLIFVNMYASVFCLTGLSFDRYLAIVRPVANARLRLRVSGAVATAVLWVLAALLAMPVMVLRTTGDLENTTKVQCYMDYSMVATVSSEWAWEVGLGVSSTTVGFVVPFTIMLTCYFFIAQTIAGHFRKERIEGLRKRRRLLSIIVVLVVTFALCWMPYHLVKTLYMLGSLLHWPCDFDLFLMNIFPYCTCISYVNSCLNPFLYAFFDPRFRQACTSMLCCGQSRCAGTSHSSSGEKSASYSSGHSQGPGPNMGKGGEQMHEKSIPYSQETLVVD
The assay is described as follows: cell-based or functional assay.

Another assay addresses T2, rat APJ receptor (rat, UniProt Q9JHG3 1-377).
T2 sequence (looked up): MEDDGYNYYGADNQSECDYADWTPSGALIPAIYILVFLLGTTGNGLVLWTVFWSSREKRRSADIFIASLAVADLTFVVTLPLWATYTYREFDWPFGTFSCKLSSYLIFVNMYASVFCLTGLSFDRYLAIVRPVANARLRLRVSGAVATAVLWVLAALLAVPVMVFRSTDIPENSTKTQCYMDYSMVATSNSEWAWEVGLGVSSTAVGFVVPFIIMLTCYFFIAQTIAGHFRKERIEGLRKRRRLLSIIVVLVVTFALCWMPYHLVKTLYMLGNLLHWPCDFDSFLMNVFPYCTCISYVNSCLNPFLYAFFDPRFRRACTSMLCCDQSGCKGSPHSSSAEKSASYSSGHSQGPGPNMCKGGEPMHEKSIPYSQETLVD
Put plainly: cell-based or functional assay.

Starred links: 1 amine or outer side, 2 acyl side, 3 side chain; linkers in the order of their positions; H or OH if unused. Non-standard residues stand in square brackets, D forms with d. Primed or numbered codes have the meaning given here. *: point of attachment. NPipG = 2-(piperidin-4-ylamino)acetic acid, O=C(CN(C1CCN([*:3])CC1)[*:1])[*:2]; AC4Abu = α-carboxy-4-aminobutyric acid, O=C(C(CCN[*:1])C(=O)[*:3])[*:2]; Oic = O=C(O)[C@@H]1C[C@@H]2CCCC[C@@H]2N1; Phe(4-Cl) = N[C@@H](Cc1ccc(Cl)cc1)C(=O)O; γGlu = O=C(O)[C@H](CCC(=O)[*:2])N[*:1]; HOOC(CH2)8CO = O=C(O)CCCCCCCCC(=O)*; d(β3hF) = N[C@@H](CC(=O)O)Cc1ccccc1; NMeR = CN[C@@H](CCCNC(=N)N)C(=O)O; Palmitoyl = CCCCCCCCCCCCCCCC(=O)*; hArg = N=C(N)NCCCC[C@H](N)C(=O)O; Tic = O=C(O)[C@@H]1Cc2ccccc2CN1; dTic = O=C(O)[C@H]1Cc2ccccc2CN1; β3hF = N[C@H](CC(=O)O)Cc1ccccc1; Cha = N[C@@H](CC1CCCCC1)C(=O)O; Aic = NC1(C(=O)O)Cc2ccccc2C1; β3hP = O=C(O)C[C@@H]1CCCN1; Pip = O=C(O)[C@@H]1CCCCN1; Nle = CCCC[C@H](N)C(=O)O; Orn = NCCC[C@H](N)C(=O)O; Pip′ = not defined here; AEEA = NCCOCCOCC(=O)O; Aib = CC(C)(N)C(=O)O; Inp = O=C(O)C1CCNCC1; Nip = nipecotic acid

B1: SEQ ID NO: 579 (peptide)
peptide: Palmitoyl-[AC4Abu][AEEA][AEEA][dQ]RP[NMeR][Cha]SHKG[Pip][Nle][β3hF]-OH
SMILES: CCCCCCCCCCCCCCCC(=O)NCCC(C(=O)O)C(=O)NCCOCCOCC(=O)NCCOCCOCC(=O)N[C@H](CCC(N)=O)C(=O)N[C@@H](CCCNC(=N)N)C(=O)N1CCC[C@H]1C(=O)N(C)[C@@H](CCCNC(=N)N)C(=O)N[C@@H](CC1CCCCC1)C(=O)N[C@@H](CO)C(=O)N[C@@H](Cc1c[nH]cn1)C(=O)N[C@@H](CCCCN)C(=O)NCC(=O)N1CCCC[C@H]1C(=O)N[C@@H](CCCC)C(=O)N[C@H](CC(=O)O)Cc1ccccc1
With B1, in the assay with human APJ receptor, the “EC50 Human APJ Receptor” value stood at 0.831 nM. Moreover, the “EC50 Rat APJ Receptor” value in the assay with rat APJ receptor came to 2.5 nM.

B2: SEQ ID NO: 581 (peptide)
peptide: Palmitoyl-[AC4Abu][AEEA][AEEA][dQ]RP[NMeR][Cha]SHKG[Pip][Aib][Phe(4-Cl)]-OH
SMILES: CCCCCCCCCCCCCCCC(=O)NCCC(C(=O)O)C(=O)NCCOCCOCC(=O)NCCOCCOCC(=O)N[C@H](CCC(N)=O)C(=O)N[C@@H](CCCNC(=N)N)C(=O)N1CCC[C@H]1C(=O)N(C)[C@@H](CCCNC(=N)N)C(=O)N[C@@H](CC1CCCCC1)C(=O)N[C@@H](CO)C(=O)N[C@@H](Cc1c[nH]cn1)C(=O)N[C@@H](CCCCN)C(=O)NCC(=O)N1CCCC[C@H]1C(=O)NC(C)(C)C(=O)N[C@@H](Cc1ccc(Cl)cc1)C(=O)O
In the case of B2, the “EC50 Human APJ Receptor” value with human APJ receptor was 1.4 nM. In the assay with rat APJ receptor, the “EC50 Rat APJ Receptor” value came out at 5.85 nM.

Consider Palmitoyl-[AC4Abu][AEEA][AEEA][dQ]RP[NMeR][Cha]SHKG[Pip′][Nle]P[β3hF]-OH [SEQ ID NO: 647], for which the “EC50 Human APJ Receptor” value with human APJ receptor was 1.58 nM. The “EC50 Rat APJ Receptor” value in the assay with rat APJ receptor is 5.83 nM.

In the case of XXXQRPRLSHKGPXPF ({PDA}[AC4Abu][Aeea][Aeea]QRP[NMeArg]LSHKGP[Nle]P[4-Cl-F]{COOH}) [SEQ ID NO: 495], the “EC50 Human APJ Receptor” value in the assay with human APJ receptor was 0.0829 nM. Moreover, in the assay with rat APJ receptor, the “EC50 Rat APJ Receptor” value was 0.532 nM.

B3: SEQ ID NO: 598 (peptide)
peptide: Palmitoyl-[AC4Abu][AEEA][AEEA][dQ]RP[NMeR][Cha]SHKG[Pip][Nle]P[Tic]-OH
SMILES: CCCCCCCCCCCCCCCC(=O)NCCC(C(=O)O)C(=O)NCCOCCOCC(=O)NCCOCCOCC(=O)N[C@H](CCC(N)=O)C(=O)N[C@@H](CCCNC(=N)N)C(=O)N1CCC[C@H]1C(=O)N(C)[C@@H](CCCNC(=N)N)C(=O)N[C@@H](CC1CCCCC1)C(=O)N[C@@H](CO)C(=O)N[C@@H](Cc1c[nH]cn1)C(=O)N[C@@H](CCCCN)C(=O)NCC(=O)N1CCCC[C@H]1C(=O)N[C@@H](CCCC)C(=O)N1CCC[C@H]1C(=O)N1Cc2ccccc2C[C@H]1C(=O)O
With B3, the “EC50 Human APJ Receptor” value with human APJ receptor was 0.463 nM. In the assay with rat APJ receptor, the “EC50 Rat APJ Receptor” value was 2.84 nM.

With Palmitoyl-[AC4Abu][AEEA][AEEA][dQ]RP[NPipG][Cha]SHKG[Pip′][Nle][Aib][Phe(4-Cl)]-OH [SEQ ID NO: 645], in the assay with human APJ receptor, the “EC50 Human APJ Receptor” value amounted to 0.254 nM. Also, the “EC50 Rat APJ Receptor” value with rat APJ receptor was determined as 0.395 nM.

B4: SEQ ID NO: 597 (peptide)
peptide: Palmitoyl-[AC4Abu][AEEA][AEEA][dQ]RP[NMeR][Cha]SHKG[Pip][Nle][Aic]-OH
SMILES: CCCCCCCCCCCCCCCC(=O)NCCC(C(=O)O)C(=O)NCCOCCOCC(=O)NCCOCCOCC(=O)N[C@H](CCC(N)=O)C(=O)N[C@@H](CCCNC(=N)N)C(=O)N1CCC[C@H]1C(=O)N(C)[C@@H](CCCNC(=N)N)C(=O)N[C@@H](CC1CCCCC1)C(=O)N[C@@H](CO)C(=O)N[C@@H](Cc1c[nH]cn1)C(=O)N[C@@H](CCCCN)C(=O)NCC(=O)N1CCCC[C@H]1C(=O)N[C@@H](CCCC)C(=O)NC1(C(=O)O)Cc2ccccc2C1
For B4, in the assay with human APJ receptor, the “EC50 Human APJ Receptor” value amounted to 0.885 nM. In addition, the “EC50 Rat APJ Receptor” value in the assay with rat APJ receptor stood at 3.37 nM.

XXXQRPRLSHKGPXPF ({pIFBu}[AC4Abu][Aeea][Aeea]QRP[NMeArg]LSHKGP[Nle]P[4-Cl-F]{COOH}) [SEQ ID NO: 118]: the “EC50 Human APJ Receptor” value with human APJ receptor came out at 0.0475 nM. In addition, the “EC50 Rat APJ Receptor” value in the assay with rat APJ receptor amounted to 0.171 nM.

B5: SEQ ID NO: 618 (peptide)
peptide: Palmitoyl-[γGlu][AEEA][AEEA][dQ]RP[NMeR][Cha]SH[Orn]G[Oic][Nle][β3hP][d(β3hF)]-OH
SMILES: CCCCCCCCCCCCCCCC(=O)N[C@@H](CCC(=O)NCCOCCOCC(=O)NCCOCCOCC(=O)N[C@H](CCC(N)=O)C(=O)N[C@@H](CCCNC(=N)N)C(=O)N1CCC[C@H]1C(=O)N(C)[C@@H](CCCNC(=N)N)C(=O)N[C@@H](CC1CCCCC1)C(=O)N[C@@H](CO)C(=O)N[C@@H](Cc1c[nH]cn1)C(=O)N[C@@H](CCCN)C(=O)NCC(=O)N1[C@H](C(=O)N[C@@H](CCCC)C(=O)N2CCC[C@H]2CC(=O)N[C@@H](CC(=O)O)Cc2ccccc2)C[C@@H]2CCCC[C@@H]21)C(=O)O
Take B5: in the assay with human APJ receptor, the “EC50 Human APJ Receptor” value was 2.47 nM. The “EC50 Rat APJ Receptor” value with rat APJ receptor turned out to be 11.1 nM.

B6: SEQ ID NO: 599 (peptide)
peptide: Palmitoyl-[AC4Abu][AEEA][AEEA][dQ]RP[NMeR][Cha]SHKG[Pip][Nle]P[dTic]-OH
SMILES: CCCCCCCCCCCCCCCC(=O)NCCC(C(=O)O)C(=O)NCCOCCOCC(=O)NCCOCCOCC(=O)N[C@H](CCC(N)=O)C(=O)N[C@@H](CCCNC(=N)N)C(=O)N1CCC[C@H]1C(=O)N(C)[C@@H](CCCNC(=N)N)C(=O)N[C@@H](CC1CCCCC1)C(=O)N[C@@H](CO)C(=O)N[C@@H](Cc1c[nH]cn1)C(=O)N[C@@H](CCCCN)C(=O)NCC(=O)N1CCCC[C@H]1C(=O)N[C@@H](CCCC)C(=O)N1CCC[C@H]1C(=O)N1Cc2ccccc2C[C@@H]1C(=O)O
In the case of B6, in the assay with human APJ receptor, the “EC50 Human APJ Receptor” value was 0.44 nM. The “EC50 Rat APJ Receptor” value with rat APJ receptor is 1.01 nM.

B7: SEQ ID NO: 589 (peptide)
peptide: Palmitoyl-[AC4Abu][AEEA][AEEA]QRP[NMeR][Cha]SHKG[Pip][Nle][Inp][Phe(4-Cl)]-OH
SMILES: CCCCCCCCCCCCCCCC(=O)NCCC(C(=O)O)C(=O)NCCOCCOCC(=O)NCCOCCOCC(=O)N[C@@H](CCC(N)=O)C(=O)N[C@@H](CCCNC(=N)N)C(=O)N1CCC[C@H]1C(=O)N(C)[C@@H](CCCNC(=N)N)C(=O)N[C@@H](CC1CCCCC1)C(=O)N[C@@H](CO)C(=O)N[C@@H](Cc1c[nH]cn1)C(=O)N[C@@H](CCCCN)C(=O)NCC(=O)N1CCCC[C@H]1C(=O)N[C@@H](CCCC)C(=O)N1CCC(C(=O)N[C@@H](Cc2ccc(Cl)cc2)C(=O)O)CC1
Take B7: in the assay with human APJ receptor, the “EC50 Human APJ Receptor” value was 0.624 nM. In addition, the “EC50 Rat APJ Receptor” value with rat APJ receptor is 4.15 nM.

Palmitoyl-[AC4Abu][AEEA][AEEA][dQ]RP[NMeR][Cha]SHKG[Pip][Nle][Nip][Phe(4-Cl)]-OH [SEQ ID NO: 588]: the “EC50 Human APJ Receptor” value with human APJ receptor was 1.52 nM. Besides, the “EC50 Rat APJ Receptor” value in the assay with rat APJ receptor turned out to be 6.37 nM.

B8: SEQ ID NO: 590 (peptide)
peptide: Palmitoyl-[AC4Abu][AEEA][AEEA][dQ]RP[NMeR][Cha]SHKG[Pip][Nle]P[Aic]-OH
SMILES: CCCCCCCCCCCCCCCC(=O)NCCC(C(=O)O)C(=O)NCCOCCOCC(=O)NCCOCCOCC(=O)N[C@H](CCC(N)=O)C(=O)N[C@@H](CCCNC(=N)N)C(=O)N1CCC[C@H]1C(=O)N(C)[C@@H](CCCNC(=N)N)C(=O)N[C@@H](CC1CCCCC1)C(=O)N[C@@H](CO)C(=O)N[C@@H](Cc1c[nH]cn1)C(=O)N[C@@H](CCCCN)C(=O)NCC(=O)N1CCCC[C@H]1C(=O)N[C@@H](CCCC)C(=O)N1CCC[C@H]1C(=O)NC1(C(=O)O)Cc2ccccc2C1
As for B8, the “EC50 Human APJ Receptor” value with human APJ receptor is 0.816 nM. In addition, the “EC50 Rat APJ Receptor” value in the assay with rat APJ receptor turned out to be 6.2 nM.

B9: SEQ ID NO: 474 (peptide)
peptide: {HOOC(CH2)8CO}-[γGlu][AEEA][AEEA][hArg]Q[hArg]P[NMeR][Cha]SHKG[Oic][Nle]P[Phe(4-Cl)]-OH
SMILES: CCCC[C@H](NC(=O)[C@@H]1C[C@@H]2CCCC[C@@H]2N1C(=O)CNC(=O)[C@H](CCCCN)NC(=O)[C@H](Cc1c[nH]cn1)NC(=O)[C@H](CO)NC(=O)[C@H](CC1CCCCC1)NC(=O)[C@H](CCCNC(=N)N)N(C)C(=O)[C@@H]1CCCN1C(=O)[C@H](CCCCNC(=N)N)NC(=O)[C@H](CCC(N)=O)NC(=O)[C@H](CCCCNC(=N)N)NC(=O)COCCOCCNC(=O)COCCOCCNC(=O)CC[C@H](NC(=O)CCCCCCCCC(=O)O)C(=O)O)C(=O)N1CCC[C@H]1C(=O)N[C@@H](Cc1ccc(Cl)cc1)C(=O)O
Regarding B9, in the assay with human APJ receptor, the “EC50 Human APJ Receptor” value was found to be 1.14 nM. Besides, in the assay with rat APJ receptor, the “EC50 Rat APJ Receptor” value amounted to 3.76 nM.
